# ChEMBL document CHEMBL1156055, “Synthetic substrate for application in both high and low throughput assays for botulinum neurotoxin B protease inhibitors” (Bioorg Med Chem Lett, 2009)
# B1: Botulinum neurotoxin type B (Clostridium botulinum), P10844 (protein)
# chain: MPVTINNFNYNDPIDNNNIIMMEPPFARGTGRYYKAFKITDRIWIIPERYTFGYKPEDFNKSSGIFNRDVCEYYDPDYLNTNDKKNIFLQTMIKLFNRIKSKPLGEKLLEMIINGIPYLGDRRVPLEEFNTNIASVTVNKLISNPGEVERKKGIFANLIIFGPGPVLNENETIDIGIQNHFASREGFGGIMQMKFCPEYVSVFNNVQENKGASIFNRRGYFSDPALILMHELIHVLHGLYGIKVDDLPIVPNEKKFFMQSTDAIQAEELYTFGGQDPSIITPSTDKSIYDKVLQNFRGIVDRLNKVLVCISDPNININIYKNKFKDKYKFVEDSEGKYSIDVESFDKLYKSLMFGFTETNIAENYKIKTRASYFSDSLPPVKIKNLLDNEIYTIEEGFNISDKDMEKEYRGQNKAINKQAYEEISKEHLAVYKIQMCKSVKAPGICIDVDNEDLFFIADKNSFSDDLSKNERIEYNTQSNYIENDFPINELILDTDLISKIELPSENTESLTDFNVDVPVYEKQPAIKKIFTDENTIFQYLYSQTFPLDIRDISLTSSFDDALLFSNKVYSFFSMDYIKTANKVVEAGLFAGWVKQIVNDFVIEANKSNTMDKIADISLIVPYIGLALNVGNETAKGNFENAFEIAGASILLEFIPELLIPVVGAFLLESYIDNKNKIIKTIDNALTKRNEKWSDMYGLIVAQWLSTVNTQFYTIKEGMYKALNYQAQALEEIIKYRYNIYSEKEKSNINIDFNDINSKLNEGINQAIDNINNFINGCSVSYLMKKMIPLAVEKLLDFDNTLKKNLLNYIDENKLYLIGSAEYEKSKVNKYLKTIMPFDLSIYTNDTILIEMFNKYNSEILNNIILNLRYKDNNLIDLSGYGAKVEVYDGVELNDKNQFKLTSSANSKIRVTQNQNIIFNSVFLDFSVSFWIRIPKYKNDGIQNYIHNEYTIINCMKNNSGWKISIRGNRIIWTLIDINGKTKSVFFEYNIREDISEYINRWFFVTITNNLNNAKIYINGKLESNTDIKDIREVIANGEIIFKLDGDIDRTQFIWMKYFSIFNTELSQSNIEERYKIQSYSEYLKDFWGNPLMYNKEYYMFNAGNKNSYIKLKKDSPVGEILTRSKYNQNSKYINYRDLYIGEKFIIRRKSNSQSINDDIVRKEDYIYLDFFNLNQEWRVYTYKYFKKEEEKLFLAPISDSDEFYNTIQIKEYDEQPTYSCQLLFKKDEESTDEIGLIGIHRFYESGIVFEEYKDYFCISKWYLKEVKRKPYNLKLGCNWQFIPKDEGWTE
# Substrate: COc1ccc2c(CC(=O)NCCCC[C@H](NC(=O)CNC(=O)[C@H](C)NC(=O)[C@H](CCC(N)=O)NC(=O)[C@H](CC(C)C)NC(=O)[C@H](C)NC(=O)[C@H](CC(=O)O)NC(=O)[C@H](C)NC(=O)[C@H](CCCNC(=N)N)NC(=O)[C@H](CC(=O)O)NC(=O)[C@H](CC(=O)O)NC(=O)[C@H](CC(C)C)NC(=O)[C@H](CCC(=O)O)NC(=O)[C@H](CO)NC(=O)[C@H](CC(C)C)NC(=O)[C@H](CCCCN)NC(=O)[C@H](CCC(N)=O)NC(=O)[C@H](CC(=O)O)NC(=O)[C@H](CCCNC(=N)N)NC(=O)[C@H](CCC(=O)O)NC(C)=O)C(=O)N[C@@H](CO)C(=O)N[C@@H](CCC(N)=O)C(=O)N[C@@H](CNc3ccc([N+](=O)[O-])cc3[N+](=O)[O-])C(=O)N[C@@H](CCC(=O)O)C(=O)N[C@@H](CO)C(=O)N[C@@H](CO)C(=O)N[C@@H](C)C(=O)N[C@@H](C)C(=O)N[C@@H](CCCCN)C(=O)N[C@@H](CC(C)C)C(=O)N[C@@H](CCCCN)C(=O)N[C@@H](CCCNC(=N)N)C(=O)N[C@@H](CCCCN)C(=O)N[C@@H](Cc3ccc(O)cc3)C(=O)N[C@@H](Cc3c[nH]c4ccccc34)C(=O)N[C@@H](Cc3c[nH]c4ccccc34)C(=O)N[C@@H](CCCCN)C(=O)N[C@@H](CC(N)=O)C(=O)N[C@@H](CC(C)C)C(=O)N[C@@H](CCCCN)C(N)=O)cc(=O)oc2c1
# Experiment: Activity at Clostridium botulinum BoNT/B protease
protein,measurement,value
B1,Km,70.9 µM
same,kcat,3.81 s⁻¹
